Data published in US11884740.

Tests used:
[1] = target: FcγIIIA Receptor on the effector cells (human) (UniProt P08637); experiment: cell-based or functional assay
[2] = target: C1q Receptor in the complement system (rabbit serum as the source of complement) (rabbit); experiment: cell-based or functional assay

FcγIIIA Receptor on the effector cells (human), sequence (P08637 17-254): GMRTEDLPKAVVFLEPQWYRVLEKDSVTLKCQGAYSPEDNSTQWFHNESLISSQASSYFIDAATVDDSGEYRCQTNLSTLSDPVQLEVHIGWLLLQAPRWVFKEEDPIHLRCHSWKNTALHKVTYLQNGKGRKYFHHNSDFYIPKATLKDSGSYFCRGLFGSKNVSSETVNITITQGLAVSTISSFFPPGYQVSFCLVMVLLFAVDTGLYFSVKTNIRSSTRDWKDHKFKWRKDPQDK

Substance | EC50 (ADCC, Raji targets, KILR CD16a effector cells) [1] [ng/mL] | EC50 (CDC, Jeko-1 cells, rabbit complement) [2] [µg/mL] | EC50 of ADCC assay Using Primary NK Cells (Raji targets, LDH release) [1] [µg/mL]
OCREVUS (ocrelizumab) (antibody) | 0.0608 | 1.21 | –
ARZERRA (ofatumumab) (antibody) | 0.0741 | 0.353 | 500
GAZYVA (obinutuzumab) (antibody) | 0.00658 | – | 19
RITUXAN (rituximab) (antibody) | 5.46 | 0.245 | 1390
